The data set concerns Escherichia coli TOP10. Description: shrunken log2 fold change of peptide-encoding DNA abundance (4.5 h post-induction vs induction); higher = less antimicrobial activity (less host growth inhibition). To be noted: time post-induction: 4.5 h; library: site-saturation at positions 5, 18, 19, 20.
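Also: peptides expressed intracellularly from a pBAD plasmid library in pooled LB shake-flask culture, induced with 0.3% L-arabinose, DNA abundance read by NGS, three biological replicates, DESeq2 with apeglm shrinkage.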

With RRIRWRPPRLPRPRPRPLGHPRP, the “shrunken log2 fold change” value stood at 0.035.

As to RRIRSRPPRLPRPRPRPLIYPRP, the “shrunken log2 fold change” value is -0.546.

Turning to RRIRMRPPRLPRPRPRPRRLPRP, the “shrunken log2 fold change” value is 0.817.

On to RRIRLRPPRLPRPRPRPNYAPRP, for which the “shrunken log2 fold change” value was -0.0328.

As for RRIRNRPPRLPRPRPRPLGIPRP, the “shrunken log2 fold change” value is -0.169.

RRIRRRPPRLPRPRPRPWLKPRP: the “shrunken log2 fold change” value stood at 0.127.

For the sequence RRIRMRPPRLPRPRPRPQCIPRP, the “shrunken log2 fold change” value amounted to 0.0157.

Turning to RRIRSRPPRLPRPRPRPWGDPRP, the “shrunken log2 fold change” value is -0.077.

For the sequence RRIRLRPPRLPRPRPRPDEAPRP, the “shrunken log2 fold change” value is 0.189.

Consider RRIRKRPPRLPRPRPRPIKWPRP, for which the “shrunken log2 fold change” value came to 0.00487.

RRIRDRPPRLPRPRPRPPRPPRP: the “shrunken log2 fold change” value amounted to 0.616.

As for RRIRNRPPRLPRPRPRPREFPRP, the “shrunken log2 fold change” value turned out to be 0.306.

For the sequence RRIRFRPPRLPRPRPRPNHRPRP, the “shrunken log2 fold change” value was -0.306.

For RRIRWRPPRLPRPRPRPLLYPRP, the “shrunken log2 fold change” value was found to be 0.0998.

As for RRIRVRPPRLPRPRPRPMGGPRP, the “shrunken log2 fold change” value amounted to 0.062.

On to RRIRWRPPRLPRPRPRPQRYPRP, for which the “shrunken log2 fold change” value came out at 0.0066.

On to RRIRMRPPRLPRPRPRPVEEPRP, for which the “shrunken log2 fold change” value was 0.292.

As to RRIRARPPRLPRPRPRPRPSPRP, the “shrunken log2 fold change” value was 0.622.

In the case of RRIRDRPPRLPRPRPRPWKWPRP, the “shrunken log2 fold change” value amounted to 0.0155.

For the sequence RRIRPRPPRLPRPRPRPWAPPRP, the “shrunken log2 fold change” value turned out to be 0.153.

In the case of RRIRRRPPRLPRPRPRPINRPRP, the “shrunken log2 fold change” value amounted to 0.0995.

For RRIRYRPPRLPRPRPRPWPWPRP, the “shrunken log2 fold change” value amounted to 0.0314.

With RRIRRRPPRLPRPRPRPQQSPRP, the “shrunken log2 fold change” value was found to be 0.273.

With RRIRPRPPRLPRPRPRPNTHPRP, the “shrunken log2 fold change” value is -0.00792.

With RRIRTRPPRLPRPRPRPNGQPRP, the “shrunken log2 fold change” value is 0.149.

In the case of RRIRGRPPRLPRPRPRPQCAPRP, the “shrunken log2 fold change” value stood at 1.11.

On to RRIRFRPPRLPRPRPRPLTFPRP, for which the “shrunken log2 fold change” value is -0.391.

As for RRIRWRPPRLPRPRPRPCEPPRP, the “shrunken log2 fold change” value was -0.27.

Take RRIRQRPPRLPRPRPRPDRAPRP: the “shrunken log2 fold change” value was found to be 0.12.

As for RRIRSRPPRLPRPRPRPYMKPRP, the “shrunken log2 fold change” value was -0.421.

Regarding RRIRRRPPRLPRPRPRPPTVPRP, the “shrunken log2 fold change” value was 0.24.

Turning to RRIRFRPPRLPRPRPRPLHKPRP, the “shrunken log2 fold change” value is -0.179.

For RRIRIRPPRLPRPRPRPMNTPRP, the “shrunken log2 fold change” value is -0.207.

With RRIRRRPPRLPRPRPRPTFAPRP, the “shrunken log2 fold change” value amounted to 0.765.

With RRIRFRPPRLPRPRPRPQYEPRP, the “shrunken log2 fold change” value amounted to 0.0625.

Turning to RRIRCRPPRLPRPRPRPTCFPRP, the “shrunken log2 fold change” value is 0.152.

For the sequence RRIRFRPPRLPRPRPRPLNKPRP, the “shrunken log2 fold change” value is -0.522.

For RRIRVRPPRLPRPRPRPPRSPRP, the “shrunken log2 fold change” value stood at 0.37.

Take RRIRCRPPRLPRPRPRPDFDPRP: the “shrunken log2 fold change” value was -0.0217.

For RRIRFRPPRLPRPRPRPLSAPRP, the “shrunken log2 fold change” value was -0.039.

Consider RRIRFRPPRLPRPRPRPYYSPRP, for which the “shrunken log2 fold change” value is -0.228.

Turning to RRIRPRPPRLPRPRPRPDWCPRP, the “shrunken log2 fold change” value is -0.179.

For the sequence RRIRCRPPRLPRPRPRPRCDPRP, the “shrunken log2 fold change” value is -0.047.

For RRIRMRPPRLPRPRPRPCQHPRP, the “shrunken log2 fold change” value was -0.188.

In the case of RRIRHRPPRLPRPRPRPCELPRP, the “shrunken log2 fold change” value turned out to be 0.00567.

On to RRIRYRPPRLPRPRPRPKKHPRP, for which the “shrunken log2 fold change” value was -0.646.

Consider RRIRPRPPRLPRPRPRPLGTPRP, for which the “shrunken log2 fold change” value was determined as 0.125.

As for RRIRKRPPRLPRPRPRPYTIPRP, the “shrunken log2 fold change” value is -0.0634.

Consider RRIRRRPPRLPRPRPRPWPPPRP, for which the “shrunken log2 fold change” value stood at 0.514.

As to RRIRTRPPRLPRPRPRPEWNPRP, the “shrunken log2 fold change” value was -0.05.

Take RRIRKRPPRLPRPRPRPKNDPRP: the “shrunken log2 fold change” value worked out at 0.186.

On to RRIRKRPPRLPRPRPRPSQKPRP, for which the “shrunken log2 fold change” value amounted to 0.0284.

As to RRIRLRPPRLPRPRPRPRWCPRP, the “shrunken log2 fold change” value was -0.0806.

In the case of RRIRVRPPRLPRPRPRPPFTPRP, the “shrunken log2 fold change” value is 0.955.

For RRIRHRPPRLPRPRPRPYNKPRP, the “shrunken log2 fold change” value is -0.681.

With RRIRVRPPRLPRPRPRPDVHPRP, the “shrunken log2 fold change” value was -0.159.

Turning to RRIRNRPPRLPRPRPRPMFIPRP, the “shrunken log2 fold change” value is -0.383.

Take RRIRYRPPRLPRPRPRPYENPRP: the “shrunken log2 fold change” value stood at 0.0075.

As for RRIRCRPPRLPRPRPRPIWNPRP, the “shrunken log2 fold change” value was -0.343.

Take RRIRQRPPRLPRPRPRPVNLPRP: the “shrunken log2 fold change” value is -0.014.

For RRIRARPPRLPRPRPRPMSQPRP, the “shrunken log2 fold change” value is 0.235.

Regarding RRIRWRPPRLPRPRPRPQISPRP, the “shrunken log2 fold change” value was -0.22.

On to RRIRGRPPRLPRPRPRPRVFPRP, for which the “shrunken log2 fold change” value was determined as 1.02.

On to RRIRKRPPRLPRPRPRPMCKPRP, for which the “shrunken log2 fold change” value was 0.0429.

As to RRIRKRPPRLPRPRPRPPMNPRP, the “shrunken log2 fold change” value stood at 0.123.

Regarding RRIRARPPRLPRPRPRPSGRPRP, the “shrunken log2 fold change” value was determined as 0.0751.

For the sequence RRIRRRPPRLPRPRPRPPNQPRP, the “shrunken log2 fold change” value was determined as 0.337.

For the sequence RRIRARPPRLPRPRPRPGDMPRP, the “shrunken log2 fold change” value was 0.374.

For RRIRERPPRLPRPRPRPDISPRP, the “shrunken log2 fold change” value was found to be 0.0621.

As to RRIRPRPPRLPRPRPRPLELPRP, the “shrunken log2 fold change” value is 0.0125.

Turning to RRIRWRPPRLPRPRPRPDTKPRP, the “shrunken log2 fold change” value worked out at 0.00587.

Consider RRIRRRPPRLPRPRPRPIHWPRP, for which the “shrunken log2 fold change” value is -0.0227.

RRIRMRPPRLPRPRPRPCDGPRP: the “shrunken log2 fold change” value came to 0.0158.

On to RRIRQRPPRLPRPRPRPPKMPRP, for which the “shrunken log2 fold change” value was -0.0821.

For the sequence RRIRVRPPRLPRPRPRPLDDPRP, the “shrunken log2 fold change” value is 0.00726.

With RRIRWRPPRLPRPRPRPYGDPRP, the “shrunken log2 fold change” value was -0.113.

Regarding RRIRGRPPRLPRPRPRPYPMPRP, the “shrunken log2 fold change” value was -0.142.

For RRIRERPPRLPRPRPRPASLPRP, the “shrunken log2 fold change” value is 0.0301.

On to RRIRMRPPRLPRPRPRPRYLPRP, for which the “shrunken log2 fold change” value is -0.0395.

On to RRIRGRPPRLPRPRPRPCFIPRP, for which the “shrunken log2 fold change” value turned out to be 0.0559.

For RRIRKRPPRLPRPRPRPRASPRP, the “shrunken log2 fold change” value was found to be 0.675.

In the case of RRIRNRPPRLPRPRPRPWKHPRP, the “shrunken log2 fold change” value was -0.347.

Take RRIRNRPPRLPRPRPRPTSQPRP: the “shrunken log2 fold change” value was determined as 0.187.

As for RRIRVRPPRLPRPRPRPFSDPRP, the “shrunken log2 fold change” value is -0.263.

Take RRIRCRPPRLPRPRPRPQRVPRP: the “shrunken log2 fold change” value was -0.158.

Turning to RRIRFRPPRLPRPRPRPTLQPRP, the “shrunken log2 fold change” value is -0.107.

RRIRIRPPRLPRPRPRPARHPRP: the “shrunken log2 fold change” value stood at 0.0869.

For the sequence RRIRRRPPRLPRPRPRPIVVPRP, the “shrunken log2 fold change” value was 0.115.

For the sequence RRIRVRPPRLPRPRPRPGNSPRP, the “shrunken log2 fold change” value was determined as 0.0126.

Turning to RRIRKRPPRLPRPRPRPMPEPRP, the “shrunken log2 fold change” value is -0.0371.

Consider RRIRERPPRLPRPRPRPDASPRP, for which the “shrunken log2 fold change” value was determined as 0.0331.

Consider RRIRWRPPRLPRPRPRPRWTPRP, for which the “shrunken log2 fold change” value is 0.386.

As for RRIRFRPPRLPRPRPRPPKWPRP, the “shrunken log2 fold change” value turned out to be 0.286.

In the case of RRIRGRPPRLPRPRPRPRHGPRP, the “shrunken log2 fold change” value was 0.264.

For RRIRWRPPRLPRPRPRPCKFPRP, the “shrunken log2 fold change” value is -0.24.

For RRIRWRPPRLPRPRPRPATIPRP, the “shrunken log2 fold change” value is -0.0366.

On to RRIRERPPRLPRPRPRPKWGPRP, for which the “shrunken log2 fold change” value was -0.0917.

RRIRTRPPRLPRPRPRPMDCPRP: the “shrunken log2 fold change” value was -0.0416.

For the sequence RRIRKRPPRLPRPRPRPDRIPRP, the “shrunken log2 fold change” value is -0.00844.

Consider RRIRKRPPRLPRPRPRPGSKPRP, for which the “shrunken log2 fold change” value was -0.0334.

Take RRIRSRPPRLPRPRPRPCQWPRP: the “shrunken log2 fold change” value is -0.134.

Consider RRIRARPPRLPRPRPRPMGSPRP, for which the “shrunken log2 fold change” value is 0.0355.

Take RRIRTRPPRLPRPRPRPDNMPRP: the “shrunken log2 fold change” value was -0.909.

With RRIRSRPPRLPRPRPRPRFEPRP, the “shrunken log2 fold change” value is 0.402.

RRIRHRPPRLPRPRPRPFTKPRP: the “shrunken log2 fold change” value was found to be 0.009.

On to RRIRCRPPRLPRPRPRPYHCPRP, for which the “shrunken log2 fold change” value was -0.271.

RRIRRRPPRLPRPRPRPDQTPRP: the “shrunken log2 fold change” value came to 0.0174.

For the sequence RRIRYRPPRLPRPRPRPAHFPRP, the “shrunken log2 fold change” value was 0.0784.

Consider RRIRNRPPRLPRPRPRPQSKPRP, for which the “shrunken log2 fold change” value is -0.301.

On to RRIRFRPPRLPRPRPRPDSRPRP, for which the “shrunken log2 fold change” value amounted to 0.391.

As to RRIRVRPPRLPRPRPRPFEDPRP, the “shrunken log2 fold change” value is -0.151.

Regarding RRIRKRPPRLPRPRPRPGRPPRP, the “shrunken log2 fold change” value came to 0.857.

In the case of RRIRLRPPRLPRPRPRPNFVPRP, the “shrunken log2 fold change” value was -0.196.

Consider RRIRDRPPRLPRPRPRPLVCPRP, for which the “shrunken log2 fold change” value amounted to 0.22.

Consider RRIRARPPRLPRPRPRPCGIPRP, for which the “shrunken log2 fold change” value came to 0.23.

Take RRIRCRPPRLPRPRPRPLFQPRP: the “shrunken log2 fold change” value is -0.417.

For the sequence RRIRVRPPRLPRPRPRPMFDPRP, the “shrunken log2 fold change” value is -0.338.

In the case of RRIRERPPRLPRPRPRPLRHPRP, the “shrunken log2 fold change” value is 0.11.

Turning to RRIRHRPPRLPRPRPRPMLNPRP, the “shrunken log2 fold change” value is -0.114.

Turning to RRIRNRPPRLPRPRPRPCMEPRP, the “shrunken log2 fold change” value is -0.206.

In the case of RRIRLRPPRLPRPRPRPVIRPRP, the “shrunken log2 fold change” value is -0.502.

As to RRIRCRPPRLPRPRPRPHQIPRP, the “shrunken log2 fold change” value was -0.389.

For the sequence RRIRYRPPRLPRPRPRPFFYPRP, the “shrunken log2 fold change” value is -0.614.

Regarding RRIRPRPPRLPRPRPRPGWFPRP, the “shrunken log2 fold change” value stood at 0.238.

Consider RRIRNRPPRLPRPRPRPVCPPRP, for which the “shrunken log2 fold change” value was -0.14.
